Data taken from article PMC8261802.

Tests used:
[1] = molecular target: PEDV/S(1–1320) + CMP + Tags (porcine epidemic diarrhea virus (PEDV), strain 83P-5 | chicken); assay: native gel or EMSA; Blue-native PAGE, 3 to 12% Bis-Tris NativePAGE gel, 115 min at 150 V, CBB stain; purified S protein
[2] = molecular target: PEDV/S(1–1320) + CMP + Tags (porcine epidemic diarrhea virus (PEDV), strain 83P-5 | chicken); assay: SEC; Superose 6 increase 10/300 GL in 1 x PBS; markers thyroglobulin 669 kDa, ferritin 440 kDa, aldolase 158 kDa

In the case of PEDV/S(1–1320) + CMP + Tags, the stoichiometry N [1] is reported as 3 and the stoichiometry N [2] is reported as 3.
